These results are taken from patent publication US20090325887A1.

This assay deals with Cav3.1 channel (α3.1 subunit). Put plainly: cell-based or functional assay.

LLILAVGV [γ6 TM1a SCR peptide] gave an inhibition of Cav3.1 current at 30 µM peptide of 0.5%.

As for LGLLVAIV [γ6 TM1a peptide], the amplitude of the fast component (Afast) of the unbinding process after 300 µM peptide (bi-exponential fit of current recovery) (normalized fraction) was -0.37; the apparent affinity (Kapp), overall is 50 µM; the dissociation rate estimated from the time constant of Cav3.1 current recovery is 0.167 s⁻¹; the fast time constant for binding (fit of current inhibition) is below 9 s. Further, the fast time constant for unbinding (fit of current recovery) is below 9 s; the fold increase in affinity between -130 mV and -80 mV holding potential amounted to 3 fold; the inhibition of Cav3.1 current at 30 µM peptide (whole-cell patch clamp, HEK/Cav3.1) was 45.3%; the inhibition of Cav3.1 current at 100 µM peptide, -100 mV came out at 60%. The same molecule returned an inhibition of Cav3.1 current at 300 µM peptide of 79.3%; a reversible part of the Cav3.1 current inhibition at 30 µM peptide of 73%; a time constant of the small slower component of the binding and unbinding processes above 30 s.

As for VTLFFILA [γ1 TM1a peptide], the inhibition of Cav3.1 current at 30 µM peptide is 2.4%.

Molecule VGLFFALA [γ1 TM1a T12GI16A peptide] displayed an inhibition of Cav3.1 current at 30 µM peptide of 29.4%.
